Square brackets hold non-standard residues; d marks the D form. Ends that are not written are not given here. * marks the point of attachment. Myristoyl = CCCCCCCCCCCCCC(=O)*; pS = N[C@@H](COP(=O)(O)O)C(=O)O
Each binder was assayed against Bacterially expressed Purified GSK-3β Wild-Type (WT) (human, UniProt P49841 1-420) (assay: cell-based or functional assay).
Bacterially expressed Purified GSK-3β Wild-Type (WT), sequence (P49841 other isoform, or with tags, fused parts or gaps limits assumed): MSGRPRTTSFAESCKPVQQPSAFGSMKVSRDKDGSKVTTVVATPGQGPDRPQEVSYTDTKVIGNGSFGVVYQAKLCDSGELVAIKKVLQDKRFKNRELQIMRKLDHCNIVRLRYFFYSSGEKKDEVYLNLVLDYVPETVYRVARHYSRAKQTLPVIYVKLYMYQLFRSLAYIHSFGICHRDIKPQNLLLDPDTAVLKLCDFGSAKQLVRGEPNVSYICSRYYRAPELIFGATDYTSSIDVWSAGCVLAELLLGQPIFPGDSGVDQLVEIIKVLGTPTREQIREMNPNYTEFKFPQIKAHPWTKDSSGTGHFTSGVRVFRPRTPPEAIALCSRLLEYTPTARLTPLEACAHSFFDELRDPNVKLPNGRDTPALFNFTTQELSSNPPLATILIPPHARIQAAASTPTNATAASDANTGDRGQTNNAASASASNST

Row | Binder | IC50, inhibition of GSK-3β phosphorylation of pIRS-1 (in vitro kinase assay)
1 | KEAPPAPPQ[pS]P [L803] | 200 µM
2 | KEAPPSPPQ[pS]P [L807] | 16 µM
3 | Myristoyl-GKEAPPAPPQ[pS]P [L803-mts] | 40 µM

Source: US20160200763A1 (RAMOT AT TEL AVIV UNIVERSITY, published 2016)
